These are literature values, as cited in paper PMC11507603.

The data set concerns the target Ubiquitin (UniProt P0CG48). Briefly: SPR. In general terms: In SPR one partner is held on a chip, and binding of the other changes the refractive index at the surface.

Sequence of Epsin Ent1 ENTH (Q12518 8-146): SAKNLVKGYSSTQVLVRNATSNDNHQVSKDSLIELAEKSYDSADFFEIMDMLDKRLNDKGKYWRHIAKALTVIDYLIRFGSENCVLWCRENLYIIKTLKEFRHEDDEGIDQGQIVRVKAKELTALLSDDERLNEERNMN

Take Epsin Ent1 ENTH (from UniProt Q12518): the dissociation constant (Kd) is 2.3 mM.

As a reminder, the Kd is the free concentration of one partner at which half of the binding sites on the other are occupied at equilibrium, for simple one-to-one binding.
